Among the data in paper PMC4909234 are Kd values, retold here.

The assay concerns the target human complement factor H (CFH) (human) (UniProt P08603). Briefly: ELISA; […] (20 mM HEPES, 50 mM NaCl, pH 7.4) […]. In general terms: An ELISA detects its analyte on a solid surface through an enzyme-linked reagent.

human complement factor H (CFH) (human), sequence (P08603 19-1231): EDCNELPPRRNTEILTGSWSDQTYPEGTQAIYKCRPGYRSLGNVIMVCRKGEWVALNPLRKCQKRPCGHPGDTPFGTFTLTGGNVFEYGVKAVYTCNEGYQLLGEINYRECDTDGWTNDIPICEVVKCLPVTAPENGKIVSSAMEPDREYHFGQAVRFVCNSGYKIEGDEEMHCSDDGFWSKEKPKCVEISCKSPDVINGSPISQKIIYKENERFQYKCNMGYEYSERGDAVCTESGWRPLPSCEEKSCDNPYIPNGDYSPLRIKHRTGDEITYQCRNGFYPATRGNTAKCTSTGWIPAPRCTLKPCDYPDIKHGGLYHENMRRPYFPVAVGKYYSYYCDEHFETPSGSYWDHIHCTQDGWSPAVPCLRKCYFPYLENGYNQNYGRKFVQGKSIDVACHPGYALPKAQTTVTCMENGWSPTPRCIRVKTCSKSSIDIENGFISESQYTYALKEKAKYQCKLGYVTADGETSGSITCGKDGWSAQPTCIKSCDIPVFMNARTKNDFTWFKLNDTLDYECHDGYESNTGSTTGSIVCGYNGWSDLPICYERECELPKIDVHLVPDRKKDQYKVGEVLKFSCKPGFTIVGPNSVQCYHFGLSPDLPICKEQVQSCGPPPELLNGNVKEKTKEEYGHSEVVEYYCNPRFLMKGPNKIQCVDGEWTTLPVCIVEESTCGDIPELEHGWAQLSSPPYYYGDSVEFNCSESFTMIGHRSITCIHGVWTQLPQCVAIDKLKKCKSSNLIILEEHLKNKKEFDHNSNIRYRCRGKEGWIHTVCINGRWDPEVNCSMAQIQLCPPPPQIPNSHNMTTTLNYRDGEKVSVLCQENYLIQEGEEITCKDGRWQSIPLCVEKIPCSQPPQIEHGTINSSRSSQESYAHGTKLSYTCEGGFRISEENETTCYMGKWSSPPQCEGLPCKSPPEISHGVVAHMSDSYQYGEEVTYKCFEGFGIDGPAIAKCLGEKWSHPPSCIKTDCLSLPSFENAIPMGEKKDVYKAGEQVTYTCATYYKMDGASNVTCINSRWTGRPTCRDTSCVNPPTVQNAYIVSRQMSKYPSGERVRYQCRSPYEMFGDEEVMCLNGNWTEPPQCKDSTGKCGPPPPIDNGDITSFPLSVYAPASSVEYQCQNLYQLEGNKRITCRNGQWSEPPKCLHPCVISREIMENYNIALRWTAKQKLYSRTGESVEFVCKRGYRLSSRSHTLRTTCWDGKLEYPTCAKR

“Recombinant BclA protein (rBclA), His-tagged (from UniProt Q81JD7 1-382) (natural protein)”: the Kd turned out to be 910 nM.

Usually Kd stands for the constant that tells how readily two partners part at equilibrium. The low end stands for tighter binding, the high end for weaker binding.
